{
  "source": "paper PMC7264852",
  "about": "“Structural and Hydrodynamic Characterization of Dimeric Human Oligoadenylate Synthetase 2” (Biophysical Journal, 2020)",
  "key": {"OAS2 (Homo sapiens)": {"target": "OAS2 (Homo sapiens) (UniProt P29728)", "settings": "cited from earlier work"}, "[1]": {"target": "recombinant human OAS1 (2′-5′-oligoadenylate synthetase 1) (human) (UniProt P00973)", "experiment": "SEC-SAXS; OAS1 loaded at 4.14 g/L (50 μL) on a Shodex KW404 column, Diamond Light Source B21; peak-1 and peak-2 analysed separately; Mw by SAXS MoW"}, "[2]": {"target": "recombinant human OAS1 (2′-5′-oligoadenylate synthetase 1) (human) (UniProt P00973)", "experiment": "AUC; sedimentation velocity, OAS1 at 2.0–3.5 g/L, 20°C, 25,000 rpm, 20 mM Tris pH 7.2, 100 mM NaCl, 1 mM DTT, 10% glycerol; monomer to dimer"}, "[3]": {"target": "the molecule itself", "experiment": "SEC-SAXS; OAS2 loaded at 4.00 g/L (50 μL) on a Shodex KW404 column, Diamond Light Source B21; volume-based molecular weight from DAMMIN"}},
  "data": [
    {"molecule": "OAS2 (from UniProt P29728)", "values": [
      {"measurement": "Kd", "setting": "OAS2 (Homo sapiens)", "result": 5.1, "unit": "nM"}
    ]},
    {"molecule": "recombinant human OAS1 (2′-5′-oligoadenylate synthetase 1) (from UniProt P00973 1-400) (enzyme)", "values": [
      {"measurement": "stoichiometry N", "setting": "[1]", "result": 2},
      {"measurement": "stoichiometry N", "setting": "[2]", "result": 2}
    ]},
    {"molecule": "FLAG-tagged OAS2 (recombinant human 2′-5′-oligoadenylate synthetase 2, wild type) (enzyme, UniProt P29728-2 1-687, looked up, human 2′-5′-oligoadenylate synthetase 2 (OAS2); residues D408, D410, D481, C668, F669, K670 are named; The N-terminal position of FLAG is stated only for the CAFAKA mutant; also called FLAG-OAS2; wild-type OAS2; source: HEK293T, transfected (pcDNA3); in lysate for the co-immunoprecipitation) MGNGESQLSSVPAQKLGWFIQEYLKPYEECQTLIDEMVNTICDVLQEPEQFPLVQGVAIGGSYGRKTVLRGNSDGTLVLFFSDLKQFQDQKRSQRDILDKTGDKLKFCLFTKWLKNNFEIQKSLDGFTIQVFTKNQRISFEVLAAFNALSLNDNPSPWIYRELKRSLDKTNASPGEFAVCFTELQQKFFDNRPGKLKDLILLIKHWHQQCQKKIKDLPSLSPYALELLTVYAWEQGCRKDNFDIAEGVRTVLELIKCQEKLCIYWMVNYNFEDETIRNILLHQLQSARPVILDPVDPTNNVSGDKICWQWLKKEAQTWLTSPNLDNELPAPSWNVLPAPLFTTPGHLLDKFIKEFLQPNKCFLEQIDSAVNIIRTFLKENCFRQSTAKIQIVRGGSTAKGTALKTGSDADLVVFHNSLKSYTSQKNERHKIVKEIHEQLKAFWREKEEELEVSFEPPKWKAPRVLSFSLKSKVLNESVSFDVLPAFNALGQLSSGSTPSPEVYAGLIDLYKSSDLPGGEFSTCFTVLQRNFIRSRPTKLKDLIRLVKHWYKECERKLKPKGSLPPKYALELLTIYAWEQGSGVPDFDTAEGFRTVLELVTQYQQLCIFWKVNYNFEDETVRKFLLSQLQKTRPVILDPAEPTGDVGGGDRWCWHLLAKEAKEWLSSPCFKDGTGNPIPPWKVPVKVI", "values": [
      {"measurement": "stoichiometry N", "setting": "[3]", "result": 2}
    ]}
  ]
}
